From publication PMC5597967, “14-3-3 Regulates Actin Filament Formation in the Deep-Branching Eukaryote Giardia lamblia” (mSphere, 2017)

Target: the molecule itself
Assay: native gel or EMSA; TS-actin and associated proteins purified on StrepTactin resin, eluted with 2 mM biotin, run at once on 4 to 16% native PAGE and blotted; with and without DSP cross-linking of cells before lysis; input also run

B1: Gl-14-3-3–HA (endogenously 3×HA C-terminally tagged Gl-14-3-3) (natural protein, Giardia lamblia, UniProt E2RU97 1-248, looked up)
chain: MAEAFTREDYVFMAQLNENAERYDEMVETMRKISGMEGELSDKERNLLSVAYKNVIGPRRAAWRIVSSIEAKEKGRQKPNAKRIEQIRVYRQKIEKELSDICNDILKLLQEQFVPRSTNADAKVFYYKMQGDYYRYLAEYSSGEDKEKIAGSALNAYNSAFEISQQLPPTHPIRLGLALNFSVFYYEILASPDRACELARKAFDAAITDLDKLTEESYKDSTLIMQLLRDNLNLWVTDSAGDDNAEEK
notes: Giardia lamblia 14-3-3 (Gl-14-3-3), the single 14-3-3 homolog, GL50803_6430; source: Giardia trophozoites, endogenously tagged (integrated copy), in lysate; not shown: 3xHA, C-terminal, kept
stoichiometry N: 2
